Results as given in the supplement of paper PMC10567573.
± gives the standard deviation.

Test: protein stability index of a GFP-peptide fusion (GPS, HEK-293T) (PSI 1-6); higher = more stable
Conditions: c terminus: a fixed tail appended
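Note: 24-mer peptide tiles fused after GFP, lentivirally expressed, FACS-sorted into six equal bins by GFP/DsRed ratio, decoded by Illumina sequencing, PSI is the read-weighted mean bin number.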

Sequence	protein stability index (treatment: DMSO)	protein stability index (treatment: MLN4924 1 uM, 8 h)
PSDDLTLLESSSSYKNLTLKFHKL [MCOLN1]	3.24 ± 0.21	3.31 ± 0.24
SLKKGSLVKNLKDTLGLGKTRRKT [NCK2]	3.96 ± 0.18	3.81 ± 0.31
EKEELLQLSIERGKVLQNKQAEIC [CCDC89]	4.44 ± 0.27	4.68 ± 0.17
ISSTTCGRQLEKVPEKRDSGMTEV [SPATS1]	4.27 ± 0.24	4.38 ± 0.35
NFRVGKKIGCGNFGELRLGKNLYT [CSNK1G1]	2.24 ± 0.4	2.11 ± 0.15
GRCIHAGCDRIIGSKKKFDKCMVC [ADAMTS4]	3.66 ± 0.41	3.56 ± 0.15
ALLSCCLTVVSFYQVAALQGDLAS [TNFSF13B]	3.57 ± 0.21	3.2 ± 0.26
MVIQLLAIMCVSCICWSPFLVTMA [PTGFR]	3.11 ± 0.45	3.22 ± 0.36
GAGLPQFQSISLRKIQFNFPYFRS [CLCN6]	2.13 ± 0.26	2.21 ± 0.41
FQRAMHDYNQAEMKQRDNCKIRIQ [STX11]	3.08 ± 0.33	3.44 ± 0.37
AIEGIPGSDYVNANYIDGYRKQNA [PTPRD]	4.09 ± 0.24	4.6 ± 0.12
IGWFPSNYVLEEVDEAAAESPSFL [NCK2]	3.93 ± 0.24	4.13 ± 0.23
SLAEVRVGYQSQNISCFFRLVDRD [MYORG]	2.42 ± 0.24	2.45 ± 0.26
DARDEELEKDTMDNWDEKKLEEVV [ZC3H15]	5.45 ± 0.4	5.21 ± 0.25
HAGKKGKLSEHLRYCDSILREMLS [BRD3]	2.16 ± 0.41	2.21 ± 0.3
HLARHAVACFLTRGDLWISWEEGM [CRY1]	3.01 ± 0.72	2.98 ± 0.47
VSQLYPESIVPIPSSNEEIRLVDD [INTS4]	4.92 ± 0.18	4.88 ± 0.081
PAIADLFAESLQCKVDCEANLTPN [P3H4]	3.93 ± 0.38	4.05 ± 0.55
TGKWYELQDLQVTDILPQMITLSE [USP39]	2.51 ± 0.29	2.85 ± 0.18
FSPDFTLRNTLKSTSEDSLVKQEC [FAN1]	2.67 ± 0.58	3.43 ± 0.85
FVSRYKLMRHMATHSPQKSHQCAH [PLAGL1]	2.7 ± 0.37	2.55 ± 0.38
LKDFTLNETVNSIFAQGAPRSSLA [ADAMTSL2]	3.01 ± 0.17	3.26 ± 0.32
DFKNPIIEKYLRRQLTKPRPVILD [OAS1]	2.46 ± 0.11	2.36 ± 0.2

Sequence	protein stability index (treatment: DMSO)	protein stability index (treatment: MLN4924 1 uM, 8 h)
LGVFLDYEAGVLAFYDVTGGMSHL [TRIM14]	2.83 ± 0.5	2.98 ± 0.82
SLQRWEHLKKVASRYQNNIKNDKY [PRIM1]	2.47 ± 0.25	2.91 ± 0.56
KEKLQKCLEPLEQKLQEITRCKSS [TRIM39]	4.38 ± 0.22	4.44 ± 0.4
SYKNLTLKFHKLVNVTIHFRLKTI [MCOLN1]	3.21 ± 0.5	3.03 ± 0.41
GGAGKGRTPSAFPQTPAAPPATLG [EHMT1]	4.6 ± 0.13	4.79 ± 0.059
ELCVKLMFLHPVDYGRKAEELLWR [SMG5]	2.41 ± 0.7	2.33 ± 0.89
QPVQSKPQKASAPAADPPRYTFAP [PDLIM7]	4.37 ± 0.27	4.44 ± 0.3
VVGTPCYISPELCEGKPYNQKSDI [NEK8]	3.29 ± 0.38	3.49 ± 0.56
QYKKEPVTTRQVRTIVEEVQDGKV [KRT17]	5 ± 0.22	5.12 ± 0.29
YQPLVTMDDAMERTVQSFRHLRRV [NSDHL]	3.14 ± 0.24	3.22 ± 0.31
PAQSGILSDREVVNLFLHFTVNPK [BTBD1]	1.84 ± 0.24	2.53 ± 0.23
GKLLLRLPSLRTVSSSVIEQLFFV [NR2F2]	2.81 ± 0.6	2.83 ± 0.34
LQCAMEENCLSASAAQTDPTTGYR [LOXL2]	3.59 ± 0.23	3.45 ± 0.29
ALKLFPVQPCSAVHLLLKKVLFAL [FAM189A2]	2.39 ± 0.17	2.35 ± 0.35
LAVAGGPRKTAAPVNALVSHLLVV [ESRRA]	2.92 ± 0.61	2.85 ± 0.55
PEPVYKLTQRQVNITVQKKVSQWW [HACD3]	2.35 ± 0.49	2.51 ± 0.31
GPQSRELTLKVLRSSSCGDTELLG [C2CD2L]	3.47 ± 0.28	3.59 ± 0.2
FWDLFRSKDNMRTRIMIGLTLVFF [SLC2A12]	2.53 ± 0.55	2.67 ± 0.39
TDVQKKKLVDAIVSGDTSKLMKIL [RIPK4]	2.78 ± 0.73	2.77 ± 0.31
ETPMAPVPLGPLGETYCEEHGEKI [TRIM15]	5.39 ± 0.2	5.38 ± 0.12
CGPQWEMSEWSECTAKCGERSVVT [ADAMTSL2]	2.92 ± 0.42	3 ± 0.52
HAYFRGHSPSCLARVTGELTMTFP [FCHO1]	2.21 ± 0.52	2.23 ± 0.13
LELAQFHNAHQLAAWCLHHICTNY [RHOBTB1]	2.7 ± 0.48	2.59 ± 0.43

Sequence	protein stability index (treatment: DMSO)	protein stability index (treatment: MLN4924 1 uM, 8 h)
ASRLLTTALTSFCAKYTYPVCSAL [FANCE]	3.29 ± 0.58	3.34 ± 0.49
PFPLGASAQNGLASSLPAEVHSLT [PLAGL1]	3.94 ± 0.089	4.09 ± 0.16
EEANADLEVKIHDWYQKQTPTSPE [KRT15]	5.33 ± 0.23	5.29 ± 0.16
VGSGGRRDSTARRPRPQGRSVSEP [RTN2]	5.09 ± 0.04	5.19 ± 0.15
QGEYPPGTSTWQFNFKFNLTEDMY [CNOT7]	1.9 ± 0.42	2.15 ± 0.46
PELLSTHPFFDTAEPDMDDPAYIA [INTS4]	5.12 ± 0.22	5.16 ± 0.12
EESYYCRCHRGYTLDPNGKTCSRV [MATN2]	2.82 ± 0.53	3.09 ± 0.55
FLDNGYGHCLLDKPEAPLHLPVTF [ADAMTS4]	2.07 ± 0.37	2.16 ± 0.14
NARRRLKKENKMTWAPKNKGGEER [IRX6]	4.51 ± 0.27	4.63 ± 0.098
KRESPGVGGGSGDEASAATPPSSR [ZBTB22]	5.53 ± 0.23	5.451 ± 0.044
FNLFCQKRFDESMQVFAKLGTDPT [VPS39]	2.68 ± 0.36	2.68 ± 0.11
IRSSFISSLSFFLKKMGKRLDYLN [FBXO39]	2.71 ± 0.61	2.81 ± 0.56
ARVLDRRGCSRVEGGGTSLHVACE [ANKRD9]	3.57 ± 0.27	3.47 ± 0.46
IDIVAIIPYFITLGTELAERQGNG [KCNA3]	2.97 ± 0.38	3.29 ± 0.59
DWLRRPLGEDNQPETQLFWDKEPW [TLE6]	3.35 ± 0.34	3.22 ± 0.43
TPLEPDAKDLPCDSKPESALGAPS [TBX5]	5.41 ± 0.29	5.36 ± 0.23
LESLPTDPLLLILSFLDYRDLINC [FBXO3]	2.84 ± 0.61	2.85 ± 0.64
HYICPRLGGIGFSSCIVCLFVGLY [SLC6A17]	2.39 ± 0.54	2.3 ± 0.21
EDLAQKLNLEEDRIQIWFQNRRAK [HESX1]	4.12 ± 0.55	4.11 ± 0.47
LLLLFGVAGGLVACRVTELQQQPL [LRRC59]	2.77 ± 0.2	3.46 ± 0.55
GGRAYQALHCPTGTEYTCKVYPVQ [TRIB3]	2.73 ± 0.3	2.76 ± 0.33
EEVAKAVLEQEETAAASRERQEEQ [EPB41L3]	5.71 ± 0.078	5.63 ± 0.19
KIFNDFKDRMKSDHKRETERVVRE [ZMYND11]	4.12 ± 0.35	4.13 ± 0.081

Sequence	protein stability index (treatment: DMSO)	protein stability index (treatment: MLN4924 1 uM, 8 h)
LPQEDPSTSQGCAQPQGAPCCSSS [FEM1A]	5.48 ± 0.12	5.37 ± 0.19
ELVVIIGWAKHIPGFSTLSLADQM [ESRRG]	3.19 ± 0.31	2.67 ± 0.77
SQGEVEKLIKCDEIQVDSEEPVFE [KLHL12]	5.23 ± 0.4	5.47 ± 0.25
KSWLNGFRPKDQTSVGMSFVAGGI [SLC25A39]	2.2 ± 0.18	2.43 ± 0.24
FPDVPLGIFLFCVCVIAIGVVQAL [TMEM175]	2.63 ± 0.62	2.28 ± 1.2
SRHLNSQVKKTTTRWCHIVRDSDS [PHTF1]	2.33 ± 0.54	3.15 ± 0.66
PESKEPVEKEEEPDPEPPPVTPQV [SMG5]	5.54 ± 0.25	5.46 ± 0.38
RRGLLVSLNELMIVIGILSAYISN [SLC2A12]	3.05 ± 0.72	2.67 ± 0.84
NHTTVTNSTPLRAACFDGRLDIVK [FEM1B]	3.46 ± 0.23	3.4 ± 0.25
AKVLTLSDDLERTIEERVNILFDF [EIF5]	2.33 ± 0.36	2.4 ± 0.21
PSIIPQEDPSQQFLQQSLERVYSL [INTS4]	3.58 ± 0.17	3.58 ± 0.28
GHAQDLMDGLPPGDSNQLAWFDTD [CTNNB1]	4.93 ± 0.31	4.7 ± 0.27
AKKAMGYQPLVTMDDAMERTVQSF [NSDHL]	3.62 ± 0.069	3.46 ± 0.39
MARLQEEHGDQLLSIRCQHQEQVE [MTUS2]	4.85 ± 0.38	4.96 ± 0.11
LTIRESILINNGSRIKGWWVFHHY [TMEM120A]	3.1 ± 0.7	2.73 ± 0.92
GFVMVPFEYRGEQHKTCMLNATSK [EDNRA]	2.24 ± 0.43	2.75 ± 0.37
IIKICDFGFAQILIPGDAYTDYVA [CDKL4]	2.6 ± 0.59	2.81 ± 0.95
SKYLLEEWFQNCYARYHQAFADRD [TEKT4]	2.48 ± 0.24	2.15 ± 0.25
LGLFTLILTEPAQAQKCYRDLALV [INTS3]	3.14 ± 0.36	2.79 ± 0.35
SSGEDDDFKSCPQGPQGREGLAFL [PWWP2B]	4.75 ± 0.23	4.85 ± 0.18
